Measured values taken from PMC8335659.

Target: GST-STG^9D
Test: pull-down; purified GST fusion of the STG C terminus incubated 1 h at 4 °C with lysate of HEK293T cells expressing FLAG-tagged μ2 or μ3, with or without 500 μM MPR^AA or MPR^DD peptide; glutathione Sepharose; blots with anti-FLAG and anti-GST

percent of μ3 pulled down (GST-STG^9A = 100%): 21%
B1: FLAG-tagged μ3 (natural protein)
chain: MIHSLFLINCSGDIFLEKHWKSVVSQSVCDYFFEAQEKAADVENVPPVISTPHHYLISIYRDKLFFVSVIQTEVPPLFVIEFLHRVADTFQDYFGECSEAAIKDNVVIVYELLEEMLDNGFPLATESNILKELIKPPTILRSVVNSITGSSNVGDTLPTGQLSNIPWRRAGVKYTNNEAYFDVVEEIDAIIDKSGSTVFAEIQGVIDACIKLSGMPDLSLSFMNPRLLDDVSFHPCIRFKRWESERVLSFIPPDGNFRLISYRVSSQNLVAIPVYVKHSISFKENSSCGRFDITIGPKQNMGKTIEGITVTVHMPKVVLNMNLTPTQGSYTFDPVTKVLAWDVGKITPQKLPSLKGLVNLQSGAPKPEENPNLNIQFKIQQLAISGLKVNRLDMYGEKYKPFKGVKYVTKAGKFQVRT
